# Paper PMC2927781
# How the values were obtained:
# Experiment in all cases: ITC; H3K4me2 peptide injected (19 x 2 ul) into the protein; 25 °C; 25 mM Tris pH 8.0, 100 mM NaCl; iTC 200; one-site model
# [1] = target: PHD_(Pygo2)–HD1B9L complex (6×His-tagged, PHD linked to HD1; ITC construct) (human) (UniProt Q9BRQ0)
# [2] = target: PHD_(Pygo2)–HD1B9L complex with Pygo2 W377F (human) (UniProt Q9BRQ0)
# [3] = target: PHD_(Pygo1)–HD1B9L complex (human) (UniProt Q9Y3Y4)
# [4] = target: free PHD finger of human Pygo2 (human)
# [5] = target: PHD_(Pygo1)–HD1_(BCL9) complex (6×His-tagged, PHD linked to HD1) (human) (UniProt Q9Y3Y4)
# [6] = target: free PHD finger of human Pygo1 (human)
# [7] = target: PHD_(Pygo2)–HD1_(BCL9) complex (human) (UniProt Q9BRQ0)
# [8] = target: PHD_(Pygo2)–HD1B9L complex with Pygo2 I344A (human) (UniProt Q9BRQ0)
substance,measurement,setting,value
15-mer H3K4me2 histone tail peptide (histone H3 tail dimethylated at lysine 4),Kd,[1],1.83 µM
same,stoichiometry N,[1],1
same,Kd,[2],11.5 µM
same,stoichiometry N,[3],1
same,Kd,[4],4.95 µM
same,stoichiometry N,[4],1
same,fold increase in affinity over free PHD (Pygo1),[5],2 fold
same,stoichiometry N,[5],1
same,Kd,[6],5.93 µM
same,stoichiometry N,[6],1
same,stoichiometry N,[7],1
same,Kd,[8],19.5 µM
